Experimental data from US20260167959A1, “APTAZYME-BASED REGULATABLE GENE EXPRESSION SYSTEMS” (REJUVENATE BIO INC, priority 2022, published 2026).
Residue numbers refer to the chain shown, from its start.

B1: RA080 (nucleic acid)
DNA: GCGCGTCCTGGATTCGGAGAATACCAGCATCGTCTTGATGCCCTTGGAAGTCTCCGGAAACGCGTACATCCAGCTGACGAGTCCCAAATAGGACGAAACGCGC
modifications: expressed or natural sequence
B2: RA070 (nucleic acid)
DNA: GCGCGTCCTGGATTCGCGGAAACGCGTACATCCAGCTGAGTGATACCAGCATCGTCTTGATGCCCTTGGCAGCACTACGAGTCCCAAATAGGACGAAACGCGC
modifications: expressed or natural sequence
B3: RA006 (nucleic acid)
DNA: GCGCGTCCTGGATTCGCGGAAACGCGTACATCCAGCTGACGAGTCCCAAATAGGACGAAACGAGTGATACCAGCATCGTCTTGATGCCCTTGGCAGCACTCGC
modifications: expressed or natural sequence
B4: RA071 (nucleic acid)
DNA: B3 DNA with A63C, T65G, G66A, C94A, C97T, A98C, T100G
modifications: expressed or natural sequence
B5: RA079 (nucleic acid)
DNA: GCGCGTCCTGGATTCGCGGAAACGCGTACATCCAGCGAGAATACCAGCATCGTCTTGATGCCCTTGGAAGTCTCGCTGACGAGTCCCAAATAGGACGAAACGCGC
modifications: expressed or natural sequence
B6: RA068 (nucleic acid)
DNA: GCGCGTCCTGGATTCGCCCGGAATACCAGCATCGTCTTGATGCCCTTGGAAGTCCGGGGAAACGCGTACATCCAGCTGACGAGTCCCAAATAGGACGAAACGCGC
modifications: expressed or natural sequence
B7: RA074 (nucleic acid)
DNA: GCGCGTCCTGGATTCGCGGAAACGCGTACATCCAGCTGACGAGTCAGAATACCAGCATCGTCTTGATGCCCTTGGAAGTCTCCAAATAGGACGAAACGCGC
modifications: expressed or natural sequence
B8: RA086 (nucleic acid)
DNA: GCGCGTCCTGGATTCGCGGAAACGCGGAATACCAGCATCGTCTTGATGCCCTTGGAAGTCCGCGTACATCCAGCTGACGAGTCCCAAATAGGACGAAACGCGC
modifications: expressed or natural sequence
B9: RA081 (nucleic acid)
DNA: GCGCGTCCTGGATTCGCGGAAACGCGTACATCCAGCTGACGAGTCCCAAGGAATACCAGCATCGTCTTGATGCCCTTGGAAGTCCATAGGACGAAACGCGC
modifications: expressed or natural sequence
B10: RA072 (nucleic acid)
DNA: GCGCGTCCTGGATTCGCGGAAACGCGTACCGAGAATACCAGCATCGTCTTGATGCCCTTGGAAGTCTCGATCCAGCTGACGAGTCCCAAATAGGACGAAACGCGC
modifications: expressed or natural sequence
B11: RA085 (nucleic acid)
DNA: GCGCGTCCTGGATTCGCGGAAACGCGTACATCCAGAATACCAGCATCGTCTTGATGCCCTTGGAAGTCTAGCTGACGAGTCCCAAATAGGACGAAACGCGC
modifications: expressed or natural sequence
B12: RA007 (nucleic acid)
DNA: GCGCGTCCTGGATTCGCGGAAACGCGTACATCCAGCTGACGAGTCCCAAATAGGACGAAACGCGAGAATACCAGCATCGTCTTGATGCCCTTGGAAGTCTCGCGC
modifications: expressed or natural sequence
B13: RA073 (nucleic acid)
DNA: GCGCGTCCTGGATTCGCGGAAACGCGTACACGGAATACCAGCATCGTCTTGATGCCCTTGGAAGTCCGTCCAGCTGACGAGTCCCAAATAGGACGAAACGCGC
modifications: expressed or natural sequence
B14: RA084 (nucleic acid)
DNA: GCGCGTCCTGGAGAGAATACCAGCATCGTCTTGATGCCCTTGGAAGTCTCTTCGCGGAAACGCGTACATCCAGCTGACGAGTCCCAAATAGGACGAAACGCGC
modifications: expressed or natural sequence
B15: RA082 (nucleic acid)
DNA: GCGCGTCCTGGATTCGAGAATACCAGCATCGTCTTGATGCCCTTGGAAGTCTCGGAAACGCGTACATCCAGCTGACGAGTCCCAAATAGGACGAAACGCGC
modifications: expressed or natural sequence
B16: RA083 (nucleic acid)
DNA: GCGCGTCCGGAATACCAGCATCGTCTTGATGCCCTTGGAAGTCCTGGATTCGCGGAAACGCGTACATCCAGCTGACGAGTCCCAAATAGGACGAAACGCGC
modifications: expressed or natural sequence
B17: RA069 (nucleic acid)
DNA: GCGCGTCCTGGATTCGCGGAAACGCGTACATCCAGCTGACGAGTCCCGGAATACCAGCATCGTCTTGATGCCCTTGGAAGTCCAAATAGGACGAAACGCGC
modifications: expressed or natural sequence
B18: RA076 (nucleic acid)
DNA: GCGCGTCCTGGATTCGCGGGAGAATACCAGCATCGTCTTGATGCCCTTGGAAGTCTCAAACGCGTACATCCAGCTGACGAGTCCCAAATAGGACGAAACGCGC
modifications: expressed or natural sequence
B19: RA075 (nucleic acid)
DNA: GCGCGTCCTGGATTCGCGGAAACGCGTACATCCAGCTGACGAGTCCCAAATAGGACGAAAGTGATACCAGCATCGTCTTGATGCCCTTGGCAGCACTACGCGC
modifications: expressed or natural sequence
B20: RA078 (nucleic acid)
DNA: GCGCGTCCTGGATTCGCGGAAACGCGTACATCCAGCTGACGAGTCCCAAATAGGACGAAACGCCGAGAATACCAGCATCGTCTTGATGCCCTTGGAAGTCTCGGC
modifications: expressed or natural sequence
B21: RA077 (nucleic acid)
DNA: GCGCGTCCAGTGATACCAGCATCGTCTTGATGCCCTTGGCAGCACTTGGATTCGCGGAAACGCGTACATCCAGCTGACGAGTCCCAAATAGGACGAAACGCGC
modifications: expressed or natural sequence

System: Renilla luciferase RNA
Assay: Barcoded aptazyme variant library screen: un-cleaved Renilla luciferase RNA by barcode read counts, HEK293-T cells
Format: cell-based
Settings: un-cleaved Renilla luciferase RNA, HEK293-T cells cultured with 1 mM theophylline (ON) over without theophylline (OFF); barcode read counts, triplicate
Method in brief: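 Barcode sequencing of cDNA versus DNA, normalized per aptazyme, gave the un-cleaved Renilla luciferase RNA fraction and fold-change with versus without theophylline (triplicates). Library: T3H48 ribozyme with one of seven theophylline aptamer variants inserted at each position, placed in the Renilla 3′ UTR of a dual-luciferase vector.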

Molecule	Fold change in RNA expression between the ON state and the OFF state [fold]
B1	1.7
B2	1.8
B3	5.0
B4	1.8
B5	1.8
B6	1.8
B7	1.8
B8	1.7
B9	1.7
B10	1.8
B11	1.7
B12	4.5
B13	1.8
B14	1.7
B15	1.7
B16	1.7
B17	1.8
B18	1.8
B19	1.8
B20	1.8
B21	1.8
